T1: hiR2-FL-C593A-T7 (human, UniProt Q6PJF5 1-856)
T1 construct: reduced surface expression reported
T1 sequence: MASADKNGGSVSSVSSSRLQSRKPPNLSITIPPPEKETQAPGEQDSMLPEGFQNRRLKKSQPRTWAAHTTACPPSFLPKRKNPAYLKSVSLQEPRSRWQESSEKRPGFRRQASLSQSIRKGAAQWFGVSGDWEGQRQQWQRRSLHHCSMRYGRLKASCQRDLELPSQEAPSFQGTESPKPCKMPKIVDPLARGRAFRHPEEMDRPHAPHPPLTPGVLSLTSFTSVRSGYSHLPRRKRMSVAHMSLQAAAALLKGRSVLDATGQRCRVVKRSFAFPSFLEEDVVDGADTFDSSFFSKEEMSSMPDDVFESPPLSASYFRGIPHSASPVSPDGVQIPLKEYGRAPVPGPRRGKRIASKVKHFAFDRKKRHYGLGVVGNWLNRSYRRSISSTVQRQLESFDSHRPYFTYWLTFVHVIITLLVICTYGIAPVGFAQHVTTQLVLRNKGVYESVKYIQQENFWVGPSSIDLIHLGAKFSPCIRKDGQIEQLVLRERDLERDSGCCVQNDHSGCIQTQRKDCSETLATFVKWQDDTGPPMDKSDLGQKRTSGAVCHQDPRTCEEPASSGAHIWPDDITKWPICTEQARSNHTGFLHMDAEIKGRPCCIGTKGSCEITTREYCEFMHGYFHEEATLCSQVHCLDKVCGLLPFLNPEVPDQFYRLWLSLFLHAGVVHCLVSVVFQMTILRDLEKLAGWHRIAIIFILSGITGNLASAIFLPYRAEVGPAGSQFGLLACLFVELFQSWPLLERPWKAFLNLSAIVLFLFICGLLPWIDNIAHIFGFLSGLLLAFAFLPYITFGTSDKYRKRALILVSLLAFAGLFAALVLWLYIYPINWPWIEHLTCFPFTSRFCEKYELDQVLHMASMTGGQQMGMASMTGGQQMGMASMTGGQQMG

T2: hiR2-FL-P533A-T7 (human, UniProt Q6PJF5 1-856)
T2 sequence: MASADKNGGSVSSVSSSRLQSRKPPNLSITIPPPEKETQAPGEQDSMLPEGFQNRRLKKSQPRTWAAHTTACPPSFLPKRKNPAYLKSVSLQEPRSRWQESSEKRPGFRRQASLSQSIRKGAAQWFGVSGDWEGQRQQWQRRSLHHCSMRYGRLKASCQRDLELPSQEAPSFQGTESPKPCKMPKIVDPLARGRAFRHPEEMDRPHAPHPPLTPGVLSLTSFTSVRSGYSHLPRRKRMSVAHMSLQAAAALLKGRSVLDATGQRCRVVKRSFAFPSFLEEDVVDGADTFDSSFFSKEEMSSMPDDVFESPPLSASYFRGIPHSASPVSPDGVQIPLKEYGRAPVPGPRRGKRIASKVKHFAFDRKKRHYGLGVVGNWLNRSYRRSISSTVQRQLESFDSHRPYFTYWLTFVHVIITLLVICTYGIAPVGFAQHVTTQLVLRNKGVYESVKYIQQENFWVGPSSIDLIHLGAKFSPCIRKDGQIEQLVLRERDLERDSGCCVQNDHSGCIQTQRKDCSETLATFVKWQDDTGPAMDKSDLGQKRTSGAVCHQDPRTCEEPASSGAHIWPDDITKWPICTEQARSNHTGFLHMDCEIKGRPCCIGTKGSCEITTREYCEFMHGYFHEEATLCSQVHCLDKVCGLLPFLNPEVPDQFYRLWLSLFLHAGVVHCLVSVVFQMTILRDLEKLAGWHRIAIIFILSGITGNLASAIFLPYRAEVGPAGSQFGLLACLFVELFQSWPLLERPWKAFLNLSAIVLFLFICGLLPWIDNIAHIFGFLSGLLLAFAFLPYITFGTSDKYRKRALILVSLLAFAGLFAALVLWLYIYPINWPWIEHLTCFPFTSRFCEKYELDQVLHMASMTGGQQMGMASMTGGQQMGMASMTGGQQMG

B1: antibody 50 (antibody, V domains shown)
VH: QVQLQQSGAELVRPGASVKVSCKASGYAFSNYLIEWVKQRPGQGLEWIGVINPGSGFTKYNEKFKGKATLTADKSSSTAYMQLSSLTSEDSAVYFCARGLYRAMDYWGQGTSVTVSS
VL: DIQMTQSPASQSASLGESVTITCLASQTIGTWLAWYQQKPGKSPQLLIYAAASLADGVPSRFSGGGSGTKFSFKISSLQAEDFVNYYCQQIYSTPYTFGGGTKLEIK
notes: mouse IgG, kappa light chain; also called clone #50; purified antibody 50
B2: antibody 34 (antibody, V domains shown)
VH: QVTLKESGPGILQPSQTLSLTCSFSGFSLSTFSLGVGWIRQSSGKGLEWLAHIWWDDEKYYNPALKSRLTISKDTSKNQVFLKIANVDAADTATYYCARAYYSKSYYALDYWGQGTSVTVSS
VL: DIQMTQSPSSLSASLGERVSLTCRASQEISGYLSWLQQKPDGTIKRLIYAASTLDSGVPKRFSGSRSGSDYSLAISSLESEDFADYYCLQYANFPFTFGSGTKLEIK
notes: mouse IgG, kappa light chain; also called clone #34; purified antibody 34

How the values were obtained:
hiR2-FL-C593A-T7 = molecular target: T1, hiR2-FL-C593A-T7; assay: FACS on MEF-DKO cells expressing the variant, 3 µg/ml antibody
Procedure, shortened: (§1)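 Pelleted cells are resuspended in antibody at 3 μg/ml and kept on ice 1 hour, washed, then incubated with PE goat anti-mouse IgG F(ab′)2 diluted 1:100 on ice for 1 hour protected from light, washed again and analysed by flow cytometry.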

hiR2-FL-P533A-T7 = molecular target: T2, hiR2-FL-P533A-T7; assay: as above
Procedure, shortened: as §1

| Binder | loss of binding vs wild type (hiR2-FL-C593A-T7) | loss of binding vs wild type (hiR2-FL-P533A-T7) |
| --- | --- | --- |
| B1 | ≥ 30% | – |
| B2 | – | ≥ 30% |

Reference: patent US20240287172A1 (SCIRHOM, published 2024)
